# Paper PMC9852224
# Legend:
# [1] = biological target: Noxa (UniProt Q13794); assay: FLAG co-immunoprecipitation, immunoblot; settings: reference: WT-FLAG-MCL-1; sites T163
# [2] = biological target: BAK (UniProt Q16611); assay: FLAG co-immunoprecipitation, immunoblot; settings: reference: WT-FLAG-MCL-1; sites T163
# [3] = biological target: Mule (preparation of Supplemental Figure 3D, not told) (UniProt Q7Z6Z7)
binding against the reference [1],binding against the reference [2],stoichiometry N [3],Substance
lost,lost,,Mcl-1 (from UniProt Q07820) T163A-FLAG-MCL-1
,,2,"Mule (preparation of Supplemental Figure 3D, not told) (from UniProt Q7Z6Z7 1-4374) (natural protein)"
